What was measured:
[1] = target: T1, ^ΔNVAMP7-^ΔNsyntaxin1-SNAP25 core complex (rat, UniProt Q9JHW5 119-190; P32851 191-265; P60881-2 1-206, S249C | K253C); test: SEC-MALS; 30 μM SNARE complex and 30 μM α-SNAP (1:1 mixture); WTC-030S5 column; 20 mM Tris-HCl (pH 8.0), 50 mM NaCl, 0.1 mM TCEP; conditions: both partners purified
T1 construct: VAMP7, rat, residues 119-190; syntaxin1A, rat, residues 191-265; the construct's printed name also holds C145S, which lies outside 191-265; SNAP25A, rat; also called ^ΔNSNARE complex; core of the VAMP7-syntaxin1-SNAP25 SNARE complex (without the N-terminal domains); source: E. coli, coexpressed, purified; copies: + +

[2] = target: T2, VAMP7-syntaxin1-SNAP25 ternary SNARE complex, labeled with Oregon Green 488 (rat, UniProt Q9JHW5 1-190; P32851 1-265; P60881-2 1-206, C21S | C56V | C145S | S249C | K253C, Oregon Green 488 (maleimide) on cysteines; the labeled endogenous and mutant cysteines are shown in Figure 1A); test: other fluorescence titration; change in Oregon Green 488 fluorescence intensity of the labeled SNARE complex as a function of α-SNAP concentration; fit y = Fmax·x/(KD + x); three independent experiments; conditions: both partners purified
T2 construct: VAMP7, rat, residues 1-190; syntaxin1A, rat, residues 1-265; SNAP25A, rat; Removal of the His6 tag is told only for α-SNAP; also called VAMP7(1–190)-C21S/C56V-syntaxin1A(1–265)-C145S/S249C/K253C-SNAP25A; source: E. coli BL21(DE3), coexpressed, purified (Ni-NTA, Superdex 200); copies: + +
T2 sequence (Q9JHW5 1-190 C21S/C56V, chain 1 of 3): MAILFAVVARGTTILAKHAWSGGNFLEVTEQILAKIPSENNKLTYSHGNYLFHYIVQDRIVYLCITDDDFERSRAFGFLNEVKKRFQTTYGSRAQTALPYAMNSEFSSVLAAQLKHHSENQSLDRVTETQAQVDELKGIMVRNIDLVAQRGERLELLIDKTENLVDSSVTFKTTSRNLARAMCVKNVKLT
T2 sequence (P32851 1-265 C145S/S249C/K253C, chain 2 of 3): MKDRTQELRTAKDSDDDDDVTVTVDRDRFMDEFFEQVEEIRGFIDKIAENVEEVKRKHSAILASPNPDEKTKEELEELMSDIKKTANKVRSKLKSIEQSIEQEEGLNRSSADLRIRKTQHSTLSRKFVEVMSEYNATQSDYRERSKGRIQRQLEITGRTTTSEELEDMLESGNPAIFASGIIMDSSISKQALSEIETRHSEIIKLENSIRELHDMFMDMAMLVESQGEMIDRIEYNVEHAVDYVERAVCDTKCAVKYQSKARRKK
T2 sequence (P60881 other isoform, or with tags, fused parts or gaps with the stated changes, chain 3 of 3): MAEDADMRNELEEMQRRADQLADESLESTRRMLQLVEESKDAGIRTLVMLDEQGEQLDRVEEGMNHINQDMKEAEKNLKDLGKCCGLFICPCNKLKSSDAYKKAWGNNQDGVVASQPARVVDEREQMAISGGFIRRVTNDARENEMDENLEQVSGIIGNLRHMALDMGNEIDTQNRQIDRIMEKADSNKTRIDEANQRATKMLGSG

T1 sequence (Q9JHW5 119-190, stated change not applied, chain 1 of 3): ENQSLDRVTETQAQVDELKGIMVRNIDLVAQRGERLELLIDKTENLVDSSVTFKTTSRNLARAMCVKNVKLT
T1 sequence (P32851 191-265 S249C/K253C, chain 2 of 3): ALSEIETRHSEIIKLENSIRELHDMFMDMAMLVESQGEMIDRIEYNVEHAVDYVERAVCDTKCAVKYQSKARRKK
T1 sequence (P60881 other isoform, or with tags, fused parts or gaps S249C | K253C | S249C | K253C | mutant, chain 3 of 3): as the sequence (P60881 other isoform, or with tags, fused parts or gaps with the stated changes, chain 3 of 3) above

B1: α-soluble NSF attachment protein (α-SNAP) (natural protein, rat, UniProt P54921 1-295, looked up)
chain: MDTSGKQAEAMALLAEAERKVKNSQSFFSGLFGGSSKIEEACEIYARAANMFKMAKNWSAAGNAFCQAAQLHLQLQSKHDAATCFVDAGNAFKKADPQEAINCLMRAIEIYTDMGRFTIAAKHHISIAEIYETELVDVEKAIAHYEQSADYYKGEESNSSANKCLLKVAGYAAQLEQYQKAIDIYEQVGTSAMDSPLLKYSAKDYFFKAALCHFCIDMLNAKLAVQKYEELFPAFSDSRECKLMKKLLEAHEEQNVDSYTESVKEYDSISRLDQWLTTMLLRIKKTIQGDEEDLR
notes: α-SNAP, rat; His6 tag removed with tobacco etch virus protease; source: E. coli BL21(DE3), purified (Ni-NTA, Superdex 200)
With B1 as the binder, how does the “stoichiometry N” value [1] read?
Its value is 1 α-SNAP per SNARE complex.

Does B1 bind [2]?
Result: binds
